Reference: patent publication US20210261648A1 (published 2021)
Changes are numbered by the printed parent chain. Numbers in names are those of the source.

Legend:
[1] = biological target: T1, FcγRIIIa type V extracellular domain with C-terminal His tag (human, UniProt P08637 17-208); test: SPR (Biacore)
T1 construct: extracellular domain; Allotype V158 (type V); also called FcgRIIIaV; FcγRIIIaV

[2] = biological target: T2, FcγRIIa type H extracellular domain with C-terminal His tag (human, UniProt P12318 34-217); test: SPR (Biacore)
T2 construct: extracellular domain; also called FcgRIIaH; FcγRIIa H
T2 sequence (looked up): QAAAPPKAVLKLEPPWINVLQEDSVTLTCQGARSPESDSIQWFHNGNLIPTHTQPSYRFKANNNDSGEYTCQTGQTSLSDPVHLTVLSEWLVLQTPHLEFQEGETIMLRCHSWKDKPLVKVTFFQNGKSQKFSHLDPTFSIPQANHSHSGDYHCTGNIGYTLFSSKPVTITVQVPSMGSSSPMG

[3] = biological target: T3, FcγRIa extracellular domain with C-terminal His tag (human, UniProt P12314 16-292); test: SPR (Biacore)
T3 construct: Whole entry named; also called FcgRIa; CD64A

[4] = biological target: T4, FcγRIIb extracellular domain with C-terminal His tag (human, UniProt P31994 43-217); test: SPR (Biacore)
T4 construct: extracellular domain; For crystals it was expressed with kifunensine and trimmed with Endo F1; also called FcgRIIb; FcγRIIb extracellular region
T4 sequence (looked up): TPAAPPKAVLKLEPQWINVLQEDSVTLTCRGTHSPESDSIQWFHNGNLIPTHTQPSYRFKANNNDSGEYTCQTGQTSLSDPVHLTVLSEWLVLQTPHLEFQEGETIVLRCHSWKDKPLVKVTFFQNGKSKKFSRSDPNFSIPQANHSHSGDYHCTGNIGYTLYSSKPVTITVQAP

[5] = biological target: T4, FcγRIIb extracellular domain with …; test: SPR (Biacore), relative amount of binding
[6] = biological target: T2, FcγRIIa type H extracellular domain …; test: SPR (Biacore), relative amount of binding
[7] = biological target: T5, FcγRIIb extracellular domain with C-terminal His tag (human, UniProt P31994 43-217); test: SPR; KD for FcγRIIaR divided by KD for FcγRIIb
T5 construct: extracellular domain; For crystallography it was expressed with kifunensine and trimmed with Endo F1; also called FcgRIIb; FcγRIIb extracellular region; not shown: His tag attached to the C terminus
T5 sequence (looked up): T4 sequence (looked up)

[8] = biological target: T5, FcγRIIb extracellular domain with …; test: SPR; KD for FcγRIIaH divided by KD for FcγRIIb
[9] = biological target: T6, FcγRIIa type R extracellular domain with C-terminal His tag (human, UniProt P12318 34-217); test: SPR (Biacore), antibody captured, FcγR as analyte
T6 chain: T2 sequence (looked up) with H134R

[10] = biological target: T7, FcγRIa extracellular domain with C-terminal His tag (human, UniProt P12314 16-292); test: SPR (Biacore), antibody captured, FcγR as analyte
T7 construct: also called FcgRIa; not shown: His tag attached to the C terminus

[11] = biological target: T5, FcγRIIb extracellular domain with …; test: SPR (Biacore), antibody captured, FcγR as analyte
[12] = biological target: T6, FcγRIIa type R extracellular domain …; test: SPR; KD of IL6R-B3/IL6R-L divided by KD of the variant
[13] = biological target: T5, FcγRIIb extracellular domain with …; test: as above
[14] = biological target: T8, FcγRIIa type H extracellular domain with C-terminal His tag (human, UniProt P12318 34-217); test: SPR (Biacore), antibody captured, FcγR as analyte
T8 construct: extracellular domain; also called FcγRIIaH; FcgRIIaH; not shown: His tag attached to the C terminus
T8 sequence (looked up): T2 sequence (looked up)

T1 sequence (P08637 17-208 F176V): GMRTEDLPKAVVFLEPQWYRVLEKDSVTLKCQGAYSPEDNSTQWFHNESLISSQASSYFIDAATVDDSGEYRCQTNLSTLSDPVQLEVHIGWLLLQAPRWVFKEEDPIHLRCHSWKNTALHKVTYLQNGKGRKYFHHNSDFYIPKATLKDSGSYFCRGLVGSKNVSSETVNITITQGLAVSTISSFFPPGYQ

B1: IL6R-BP471/IL6R-L (antibody, human IgG1, kappa)
heavy: QVQLQESGPGLVKPSETLSLTCAVSGHSISHDHAWSWVRQPPGEGLEWIGFISYSGITNYNPSLQGRVTISRDNSKNTLYLQMNSLRAEDTAVYYCARSLARTTAMDYWGEGTLVTVSSASTKGPSVFPLAPSSKSTSGGTAALGCLVKDYFPEPVTVSWNSGALTSGVHTFPAVLQSSGLYSLSSVVTVPSSSLGTQTYICNVNHKPSNTKVDKKVEPKSCDKTHTCPPCPAPDLLGDDSVFLFPPKPKDTLMISRTPEVTCVVVDVSDEDGEVKFNWYVDGVEVHNAKTKPREEQDNSTYRVVSVLTVLHQDWLNGKEYKCKVSNKALPRSIEKTISKAKGQPREPQVYTLPPSRDELTKNQVSLTCLVKGFYPSDIAVEWESNGQPENNYKTTPPVLDSDGSFFLYSKLTVDKSRWQQGNVFSCSVMHEALHNHYTQESLSLSP
light: not shown
Question: Does B1 bind [1]?
Answer: binds

Question: Does B1 bind [2]?
Answer: binds

Question: Does B1 bind [3]?
Answer: binds

B2: IL6R-BP473/IL6R-L (antibody, human IgG1, kappa)
heavy: B1 heavy with A329G, S333P
light: not shown
Question: Does B2 bind [1]?
Answer: binds

Question: And the “fold increase of binding against IL6R-BP230/IL6R-L” value [4]?
Answer: 1.2 times

Question: Does B2 bind [2]?
Answer: binds

Question: Does B2 bind [3]?
Answer: binds

B3: IL6R-BP477/IL6R-L (antibody, human IgG1, kappa)
heavy: B1 heavy with A329G
light: not shown
Question: Does B3 bind [1]?
Answer: binds

Question: Does B3 bind [2]?
Answer: binds

Question: Does B3 bind [3]?
Answer: binds

B4: B3 variant of GpH7-B3/GpL16-k0 with Pro at position 238 (EU numbering) substituted with Asp (antibody, human IgG1, kappa)
heavy: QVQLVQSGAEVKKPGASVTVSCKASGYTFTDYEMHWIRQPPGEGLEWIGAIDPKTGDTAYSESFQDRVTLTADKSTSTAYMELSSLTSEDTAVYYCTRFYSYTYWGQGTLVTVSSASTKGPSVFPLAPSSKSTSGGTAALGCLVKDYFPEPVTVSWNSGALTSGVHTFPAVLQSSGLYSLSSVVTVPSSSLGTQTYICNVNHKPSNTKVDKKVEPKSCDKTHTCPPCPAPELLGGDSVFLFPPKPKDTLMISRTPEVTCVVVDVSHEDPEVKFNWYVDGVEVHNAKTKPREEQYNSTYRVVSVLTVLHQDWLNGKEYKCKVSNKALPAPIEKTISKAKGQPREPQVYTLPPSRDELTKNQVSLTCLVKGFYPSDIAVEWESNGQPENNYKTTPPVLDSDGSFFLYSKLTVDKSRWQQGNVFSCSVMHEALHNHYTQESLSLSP
light: DIVMTQSPLSLPVTPGEPASISCQASESLVHSNRNTYLHWYLQKPGQSPQLLIYKVSNRFSGVPDRFSGSGSGTDFTLKISRVEAEDVGVYYCSQNTHVPPTFGQGTKVEIERTVAAPSVFIFPPSDEQLKSGTASVVCLLNNFYPREAKVQWKVDNALQSGNSQESVTEQDSKDSTYSLSSTLTLSKADYEKHKVYACEVTHQGLSSPVTKSFNRGEC
notes: also called mutation A
Question: Does B4 bind [5]?
Answer: binds

B5: B3 variant of GpH7-B3/GpL16-k0 with Leu at position 328 (EU numbering) substituted with Glu (antibody, human IgG1, kappa)
heavy: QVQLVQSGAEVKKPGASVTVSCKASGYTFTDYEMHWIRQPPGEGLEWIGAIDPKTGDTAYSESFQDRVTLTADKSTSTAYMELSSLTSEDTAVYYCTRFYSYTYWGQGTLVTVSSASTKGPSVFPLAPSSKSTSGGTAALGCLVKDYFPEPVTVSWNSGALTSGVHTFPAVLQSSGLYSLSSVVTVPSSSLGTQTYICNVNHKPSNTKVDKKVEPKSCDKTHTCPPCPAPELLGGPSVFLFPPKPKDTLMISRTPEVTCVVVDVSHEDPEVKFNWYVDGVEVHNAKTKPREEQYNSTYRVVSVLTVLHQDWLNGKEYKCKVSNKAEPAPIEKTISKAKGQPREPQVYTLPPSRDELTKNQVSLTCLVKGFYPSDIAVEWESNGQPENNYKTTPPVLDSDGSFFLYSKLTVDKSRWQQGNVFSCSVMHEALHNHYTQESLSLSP
light: B4 light
notes: also called mutation B
Question: Does B5 bind [5]?
Answer: binds

Question: Does B5 bind [6]?
Answer: binds

B6: IL6R-BP478/IL6R-L (antibody, human IgG4 S228P, kappa)
heavy: QVQLQESGPGLVKPSETLSLTCAVSGHSISHDHAWSWVRQPPGEGLEWIGFISYSGITNYNPSLQGRVTISRDNSKNTLYLQMNSLRAEDTAVYYCARSLARTTAMDYWGEGTLVTVSSASTKGPSVFPLAPCSRSTSESTAALGCLVKDYFPEPVTVSWNSGALTSGVHTFPAVLQSSGLYSLSSVVTVPSSSLGTKTYTCNVDHKPSNTKVDKRVESKYGPPCPPCPAPDLLGDDSVFLFPPKPKDTLMISRTPEVTCVVVDVSDEDGEVKFNWYVDGVEVHNAKTKPREEQDNSTYRVVSVLTVLHQDWLNGKEYKCKVSNKALPRPIEKTISKAKGQPREPQVYTLPPSRDELTKNQVSLTCLVKGFYPSDIAVEWESNGQPENNYKTTPPVLDSDGSFFLYSKLTVDKSRWQQGNVFSCSVMHEALHNHYTQESLSLSP
light: not shown
Question: Does B6 bind [1]?
Answer: binds

Question: What about the “fold increase of binding against IL6R-BP230/IL6R-L” value [4] of the same binder?
Answer: 1.1 fold

Question: Does B6 bind [2]?
Answer: binds

Question: Does B6 bind [3]?
Answer: binds

B7: IL6R-BP562/IL6R-L (antibody, human IgG1, kappa)
heavy: B1 heavy with D235E, E274D, S333P
light: not shown
notes: Anti-human IL-6R IgG1; alterations introduced into IL6R-B3 (G1d with K439E)
Question: Which results are given for B7?
Answer: KD(IIaR)/KD(IIb) [7]: 29; KD(IIaH)/KD(IIb) [8]: 466; Kd [9]: 680 nM; Kd [10]: 25 nM; Kd [11]: 24 nM; KD(IIaR) of the parent polypeptide/KD(IIaR) of the altered polypeptide [12]: 1.6; KD(IIb) of the parent polypeptide/KD(IIb) of the altered polypeptide [13]: 131

B8: IL6R-BP563/IL6R-L (antibody, human IgG1, kappa)
heavy: B1 heavy with D270E, E274D, S333P
light: not shown
notes: as for B7
Question: For B8, which “KD(IIaR)/KD(IIb)” value [7] is on record?
Answer: 29.1

Question: What about the “KD(IIaH)/KD(IIb)” value [8] of the same binder?
Answer: 525

Question: What about the Kd [14] of the same binder?
Answer: 8300 nM

Question: And the Kd [9]?
Answer: 460 nM

Question: And the Kd [10]?
Answer: 12 nM

Question: And the Kd [11]?
Answer: 16 nM

Question: What about the “KD(IIaR) of the parent polypeptide/KD(IIaR) of the altered polypeptide” value (“KD(IIaR) … of the altered polypeptide” below) [12] of the same binder?
Answer: 2.4

Question: And the “KD(IIb) of the parent polypeptide/KD(IIb) of the altered polypeptide” value (shortened to “KD(IIb) … of the altered polypeptide”) [13]?
Answer: 196

B9: IL6R-BP564/IL6R-L (antibody, human IgG1, kappa)
heavy: B1 heavy with D235E, D270E, E274D, S333P
light: not shown
notes: as for B7
Question: Which results are given for B9?
Answer: KD(IIaR)/KD(IIb) [7]: 26.2; KD(IIaH)/KD(IIb) [8]: 454; Kd [9]: 580 nM; Kd [10]: 31 nM; Kd [11]: 22 nM; KD(IIaR) of the parent polypeptide/KD(IIaR) of the altered polypeptide [12]: 1.9; KD(IIb) of the parent polypeptide/KD(IIb) of the altered polypeptide [13]: 141

B10: IL6R-BP565/IL6R-L (antibody, human IgG1, kappa)
heavy: B1 heavy with S269A, D270E, S333P
light: not shown
notes: as for B7
Question: Which “KD(IIaR)/KD(IIb)” value [7] does the source give for B10 here?
Answer: 41.5

Question: And the “KD(IIaH)/KD(IIb)” value [8]?
Answer: 856

Question: And the Kd [14]?
Answer: 4700 nM

Question: What about the Kd [9] of the same binder?
Answer: 230 nM

Question: And the Kd [10]?
Answer: 2.4 nM

Question: And the Kd [11]?
Answer: 5.5 nM

Question: What about the “KD(IIaR) … of the altered polypeptide” value [12] of the same binder?
Answer: 4.8

Question: What about the “KD(IIb) … of the altered polypeptide” value [13] of the same binder?
Answer: 565

B11: IL6R-BP567/IL6R-L (antibody, human IgG1, kappa)
heavy: B1 heavy with D239G, V266I, S269A, D270E, R332A, S333P
light: not shown
notes: as for B7
Question: Which results are given for B11?
Answer: KD(IIaR)/KD(IIb) [7]: 64.4; KD(IIaH)/KD(IIb) [8]: 1230; Kd [9]: 890 nM; Kd [10]: 0.21 nM; Kd [11]: 14 nM; KD(IIaR) of the parent polypeptide/KD(IIaR) of the altered polypeptide [12]: 1.2; KD(IIb) of the parent polypeptide/KD(IIb) of the altered polypeptide [13]: 225

B12: IL6R-BP568/IL6R-L (antibody, human IgG1, kappa)
heavy: B1 heavy with D239G, V266I, S269A, D270E, D298Y, R332A, S333P
light: not shown
notes: as for B7
Question: B12 was tested. Which “KD(IIaR)/KD(IIb)” value [7] did it give?
Answer: 46.1

Question: And the “KD(IIaH)/KD(IIb)” value [8]?
Answer: 748

Question: What about the Kd [9] of the same binder?
Answer: 680 nM

Question: And the Kd [10]?
Answer: 0.19 nM

Question: What about the Kd [11] of the same binder?
Answer: 15 nM

Question: What about the “KD(IIaR) … of the altered polypeptide” value [12] of the same binder?
Answer: 1.6

Question: And the “KD(IIb) … of the altered polypeptide” value [13]?
Answer: 211
